How the values were obtained:
Conditions in all cases: remark: other sources report otherwise
[1] = target: T1, recombinant ICAM-1 Fc chimera, P05362; assay: BIAcore; Scatchard plots at steady state
T1 chain: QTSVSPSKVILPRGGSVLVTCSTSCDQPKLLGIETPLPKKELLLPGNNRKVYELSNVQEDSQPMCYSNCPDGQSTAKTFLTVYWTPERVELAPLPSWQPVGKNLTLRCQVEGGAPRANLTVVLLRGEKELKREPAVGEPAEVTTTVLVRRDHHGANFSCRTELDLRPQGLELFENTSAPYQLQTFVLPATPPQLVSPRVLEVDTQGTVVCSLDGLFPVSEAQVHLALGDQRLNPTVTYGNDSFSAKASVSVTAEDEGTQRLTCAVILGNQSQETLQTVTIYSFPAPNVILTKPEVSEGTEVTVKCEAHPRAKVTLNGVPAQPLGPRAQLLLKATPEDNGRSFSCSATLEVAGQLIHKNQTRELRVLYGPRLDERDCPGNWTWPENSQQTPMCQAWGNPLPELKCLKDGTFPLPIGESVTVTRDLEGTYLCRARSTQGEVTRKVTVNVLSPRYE

[2] = target: T1, recombinant ICAM-1 Fc chimera, P05362; assay: BIAcore; dissociation phase, 1:1 model
[3] = target: T1, recombinant ICAM-1 Fc chimera, P05362; assay: BIAcore; Kon calculated by Koff/KD

Kd [1]: 1350 µM
koff [2]: 3 s⁻¹
kon [3]: 2220 M⁻¹ s⁻¹
B1: recombinant soluble wild-type αL I-domain (G128-Y307), E. coli, P20701 153-332 (receptor)
chain: GNVDLVFLFDGSMSLQPDEFQKILDFMKDVMKKLSNTSYQFAAVQFSTSYKTEFDFSDYVKRKDPDALLKHVKHMLLLTNTFGAINYVATEVFREELGARPDATKVLIIITDGEATDSGNIDAAKDIIRYIIGIGKHFQTKESQETLHKFASKPASEFVKILDTFEKLKDLFTELQKKIY

— US20020123614A1
